This note sets out measurements from publication doi:10.1101/2022.06.19.496727.

This experiment deals with 8His-Smc3 with the J-head reporter cysteine (wild type trimer) (S. cerevisiae) (UniProt P47037). Description: cross-linking.

As for “Smc1 with the J-head reporter cysteine (wild type trimer) (from UniProt P32908 1-1225) (natural protein)”, the percent of molecules cross-linked was determined as 70%.
